The text below walks through data of US20020123082A1 (NEW YORK UNIVERSITY, published 2002).

To fix the notation:
T1: human F-box protein FBP2 (human, UniProt Q9UKT8 1-419, limits assumed)
T1 sequence: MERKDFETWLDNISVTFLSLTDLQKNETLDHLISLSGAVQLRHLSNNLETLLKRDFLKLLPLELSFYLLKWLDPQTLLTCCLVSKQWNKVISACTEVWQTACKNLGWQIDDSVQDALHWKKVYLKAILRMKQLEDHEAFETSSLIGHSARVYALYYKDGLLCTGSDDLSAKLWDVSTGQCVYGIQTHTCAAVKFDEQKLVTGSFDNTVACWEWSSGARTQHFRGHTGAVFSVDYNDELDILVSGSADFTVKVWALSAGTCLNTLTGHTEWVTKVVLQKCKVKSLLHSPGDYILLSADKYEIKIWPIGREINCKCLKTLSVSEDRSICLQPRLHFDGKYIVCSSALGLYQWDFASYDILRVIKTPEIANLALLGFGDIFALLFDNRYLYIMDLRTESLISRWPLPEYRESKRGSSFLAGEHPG

T2: human F-box protein FBP3a (human, UniProt Q9UKT7 1-428)
T2 sequence: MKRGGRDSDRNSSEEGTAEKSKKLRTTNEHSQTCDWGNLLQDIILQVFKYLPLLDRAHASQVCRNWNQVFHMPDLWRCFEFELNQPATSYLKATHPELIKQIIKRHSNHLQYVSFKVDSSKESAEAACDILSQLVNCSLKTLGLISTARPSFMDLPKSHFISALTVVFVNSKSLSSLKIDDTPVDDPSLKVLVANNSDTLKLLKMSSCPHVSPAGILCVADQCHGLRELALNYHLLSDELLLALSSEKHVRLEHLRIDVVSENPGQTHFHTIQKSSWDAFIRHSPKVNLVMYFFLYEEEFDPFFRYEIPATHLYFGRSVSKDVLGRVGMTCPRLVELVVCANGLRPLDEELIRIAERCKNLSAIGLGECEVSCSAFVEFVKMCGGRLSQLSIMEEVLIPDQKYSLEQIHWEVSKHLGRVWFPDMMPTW

T3: human F-box protein FBP1 (human, UniProt Q9Y297 1-605)
T3 sequence: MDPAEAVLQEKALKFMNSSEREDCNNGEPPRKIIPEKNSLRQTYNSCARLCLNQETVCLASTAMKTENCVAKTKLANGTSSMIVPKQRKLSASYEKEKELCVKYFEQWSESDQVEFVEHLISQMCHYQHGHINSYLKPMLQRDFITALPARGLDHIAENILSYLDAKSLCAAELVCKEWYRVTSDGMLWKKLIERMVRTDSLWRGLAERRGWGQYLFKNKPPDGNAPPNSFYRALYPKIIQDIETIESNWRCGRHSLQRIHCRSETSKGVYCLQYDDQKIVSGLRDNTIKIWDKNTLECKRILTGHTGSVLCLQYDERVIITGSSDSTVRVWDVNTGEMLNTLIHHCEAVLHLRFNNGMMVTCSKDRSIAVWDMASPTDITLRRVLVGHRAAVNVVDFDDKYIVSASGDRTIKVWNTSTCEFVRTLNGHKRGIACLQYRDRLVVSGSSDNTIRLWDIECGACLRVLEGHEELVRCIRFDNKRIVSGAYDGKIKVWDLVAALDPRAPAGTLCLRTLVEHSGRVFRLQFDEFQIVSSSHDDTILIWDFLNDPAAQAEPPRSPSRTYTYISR

T4: human F-box protein FBP5 (human, UniProt Q9UKT4 1-447)
T4 construct: Gal4 AD fusion in the two-hybrid screen; the clone appeared to be full length
T4 sequence: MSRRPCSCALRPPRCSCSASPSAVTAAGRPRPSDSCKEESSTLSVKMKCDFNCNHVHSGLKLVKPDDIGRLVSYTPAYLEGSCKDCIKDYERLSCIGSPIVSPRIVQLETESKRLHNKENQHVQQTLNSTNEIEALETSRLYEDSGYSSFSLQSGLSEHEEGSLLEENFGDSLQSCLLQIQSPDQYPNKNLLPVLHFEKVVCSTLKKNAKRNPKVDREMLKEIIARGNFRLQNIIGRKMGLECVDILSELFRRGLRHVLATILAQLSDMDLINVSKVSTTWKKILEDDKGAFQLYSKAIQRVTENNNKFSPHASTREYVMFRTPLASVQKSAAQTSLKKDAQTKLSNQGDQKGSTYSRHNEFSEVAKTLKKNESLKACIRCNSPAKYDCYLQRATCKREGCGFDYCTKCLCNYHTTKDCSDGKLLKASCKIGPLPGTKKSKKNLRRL

B1: human F-box protein FBP7 (other)
chain: MSNTRFTITLNYKDPLTGDEETLASYGIVSGDLICLILHDDIPPPNIPSSTDSEHSSLQNNEQPSLATSSNQTSIQDEQPSDSFQGQAAQSGVWNDDSMLGPSQNFEAESIQDNAHMAEGTGFYPSEPLLCSESVEGQVPHSLETLYQSADCSDANDALIVLIHLLMLESGYIPQGTEAKALSLPEKWKLSGVYKLQYMHHLCEGSSATLTCVPLGNLIVVNATLKINNEIRSVKRLQLLPESFICKEKLGENVANIYKDLQKLSRLFKDQLVYPLLAFTRQALNLPNVFGLVVLPLELKLRIFRLLDVRSVLSLSAVCRDLFTASNDPLLWRFLYLRDFRDNTVRVQDTDWKELYRKRHIQRKESPKGRFVLLLPSSTHTIPFYPNPLHPRPFPSSRLPPGIIGGEYDQRPTLPYVGDPISSLIPGPGETPSQLPPLRPRFDPVGPLPGPNPILPGRGGPNDRFPFRPSRGRPTDGRLSFM
B2: Flag-tagged (ΔF)FBP2 (other, not shown: small tags and cut ends)
chain: MERKDFETWLDNISVTFLSLTDLQKNETLDHLISLSGAVQLRHLSNNLETLLKRDFLKLCKNLGWQIDDSVQDALHWKKVYLKAILRMKQLEDHEAFETSSLIGHSARVYALYYKDGLLCTGSDDLSAKLWDVSTGQCVYGIQTHTCAAVKFDEQKLVTGSFDNTVACWEWSSGARTQHFRGHTGAVFSVDYNDELDILVSGSADFTVKVWALSAGTCLNTLTGHTEWVTKVVLQKCKVKSLLHSPGDYILLSADKYEIKIWPIGREINCKCLKTLSVSEDRSICLQPRLHFDGKYIVCSSALGLYQWDFASYDILRVIKTPEIANLALLGFGDIFALLFDNRYLYIMDLRTESLISRWPLPEYRESKRGSSFLAGEHPG
notes: pcDNA3 construct, Flag tag at the C-terminus; also called Flag-tagged (deltaF)FBP2
B3: phospho-p27 peptide NAGSVEQT*PKKPGLRRRQT (peptide)
peptide: NAGSVEQ[pT]PKKPGLRRRQT
notes: Coupled to Sepharose beads; 19 C-terminal residues of p27; also called phospho-T187 p27 peptide; p27 phosphopeptide
B4: control phospho-peptide AEIGVGAY*GTVYKARDPHS of human Cdk4 (peptide)
peptide: AEIGVGA[pY]GTVYKARDPHS
notes: Coupled to beads; also called unrelated phospho-peptide
B5: Flag-tagged (ΔF)FBP3a (other, not shown: small tags and cut ends)
chain: MKRGGRDSDRNSSEEGTAEKSKKLRTTNEHSQTCDWGNLRCFEFELNQPATSYLKATHPELIKQIIKRHSNHLQYVSFKVDSSKESAEAACDILSQLVNCSLKTLGLISTARPSFMDLPKSHFISALTVVFVNSKSLSSLKIDDTPVDDPSLKVLVANNSDTLKLLKMSSCPHVSPAGILCVADQCHGLRELALNYHLLSDELLLALSSEKHVRLEHLRIDVVSENPGQTHFHTIQKSSWDAFIRHSPKVNLVMYFFLYEEEFDPFFRYEIPATHLYFGRSVSKDVLGRVGMTCPRLVELVVCANGLRPLDEELIRIAERCKNLSAIGLGECEVSCSAFVEFVKMCGGRLSQLSIMEEVLIPDQKYSLEQIHWEVSKHLGRVWFPDMMPTW
notes: pcDNA3 construct, Flag tag at the C-terminus; also called Flag-tagged (deltaF)FBP3a

Non-standard residues stand in square brackets, D forms with d. No end group written: not given here. pY = N[C@@H](Cc1ccc(OP(=O)(O)O)cc1)C(=O)O; pT = C[C@@H](OP(=O)(O)O)[C@H](N)C(=O)O

Assay [1] addresses B3. Briefly: in vitro translated 35S-FBP on phospho-p27 peptide Sepharose beads, RIPA wash, autoradiography. How it is done:
(§1) FIG. 37A-C. […] Beads were washed with RIPA buffer and bound proteins were eluted and subjected to electrophoresis and autoradiography (Upper Panel). Bottom Panel: 10% of the in vitro translated [35S]FBP inputs. […] Beads were washed with RIPA buffer and bound proteins were immunoblotted with antibodies to the proteins indicated on the left of each panel. A portion of the HeLa extract (25 μg) was used as a control (lane 4). […] C. […] Beads were washed with RIPA buffer and bound proteins subjected to electrophoresis and autoradiography.

Assay [2] addresses His-tagged Elongin C (human, UniProt Q15369 1-112). Briefly: pull-down of in vitro translated 35S-FBP on His-Elongin C Nickel-agarose beads. On the procedure: FIG. 29. FBPs interact specifically with Skp1 through their F-box. The cDNAs of FBPs (wild type and mutants) were transcribed and translated in vitro (IVT) in the presence of 35S- methionine. […] Bound IVT proteins were analyzed by SDS-PAGE and autoradiography. The arrows on the left side of the panels point to the indicated FBPs. The apparent molecular weights of the protein standards are indicated on the right side of the panels.
As examples of the human FBP family, a more detailed characterization of some FBPs was performed. To confirm the specificity of interaction between the novel FBPs and human Skp1, eight in vitro translated FBPs were tested for binding to His-tagged-Skp1 pre-bound to Nickel-agarose beads. As a control Elongin C was used, the only known human Skp1 homolog.

Assay [3] addresses T5, human Cul1 (endogenous) (human, UniProt Q13616 1-776).
T5 construct: A slower migrating form is said to be likely modified by a ubiquitin-like molecule
Briefly: anti-Flag co-immunoprecipitation from transfected HeLa cells, anti-Cul1 immunoblot. The source says:
HeLa cells were transfected with mammalian expression plasmids encoding Flag-tagged versions of FBP1 (lane 1), (ΔF)FBP1 (lane 2), FBP4 (lane 3), FBP7 (lane 5), FBP2 (lane 7), (ΔF)FBP2 (lane 8), FBP3a (lane 9), (ΔF)FBP3a (lane 10), or with an empty vector (lanes 4 and 6). Cells were lysed and extracts were subjected to immunoprecipitation with a rabbit anti-Flag antibody (lanes 1-8). Immunoprecipitates were then immunoblotted with a mouse anti-Cul1 monoclonal antibody, a rabbit anti-Skp1 polyclonal antibody or a rabbit anti-Cul2 polyclonal antibody, as indicated. The last lane contains 25 μg of extracts from non-transfected HeLa cells; […] contains recombinant Cul1, Skp1, or Cul2 proteins used as markers.
In general terms: A western blot detects proteins with antibodies after separation by electrophoresis.

Assay [4] has as its target T1, human F-box protein FBP2. Briefly: in vitro translated 35S-FBP on phospho-p27 peptide Sepharose beads, RIPA wash, autoradiography. On the procedure:
as §1

For assay [5], the target named is T2, human F-box protein FBP3a. The assay is described as above. How it is done:
as §1

Assay [6] has as its target T3, human F-box protein FBP1. The assay is described as above. On the procedure: as §1
Assay [7] deals with T4, human F-box protein FBP5. The description is as above. How it is done: as §1
Assay [8] deals with T5, human Cul1 (endogenous). Briefly: HeLa cell extract on peptide beads, RIPA wash, immunoblot. How it is done: (§2) Beads were washed with RIPA buffer and bound proteins were immunoblotted with antibodies to the proteins indicated on the left of each panel. A portion of the HeLa extract (25 μg) was used as a control (lane 4). […] C. […] Beads were washed with RIPA buffer and bound proteins subjected to electrophoresis and autoradiography.
(§3) Proteins stably associated with the beads were examined by immunoblotting.

Assay [9] addresses human Skp1 (endogenous, HeLa cells) (human, UniProt P63208 2-163). The description is as above. How it is done:
as §2, §3

Assay [10] addresses T6, human F-box protein Skp2 (human, UniProt Q13309 1-424).
T6 construct: Used as in vitro translated 35S-Skp2, as endogenous protein of HeLa and IMR90 extracts and as untagged baculovirus protein; also called S-phase kinase-associated protein 2
The assay is described as above. How it is done: as §2, §3

T5 sequence (Q13616 whole entry): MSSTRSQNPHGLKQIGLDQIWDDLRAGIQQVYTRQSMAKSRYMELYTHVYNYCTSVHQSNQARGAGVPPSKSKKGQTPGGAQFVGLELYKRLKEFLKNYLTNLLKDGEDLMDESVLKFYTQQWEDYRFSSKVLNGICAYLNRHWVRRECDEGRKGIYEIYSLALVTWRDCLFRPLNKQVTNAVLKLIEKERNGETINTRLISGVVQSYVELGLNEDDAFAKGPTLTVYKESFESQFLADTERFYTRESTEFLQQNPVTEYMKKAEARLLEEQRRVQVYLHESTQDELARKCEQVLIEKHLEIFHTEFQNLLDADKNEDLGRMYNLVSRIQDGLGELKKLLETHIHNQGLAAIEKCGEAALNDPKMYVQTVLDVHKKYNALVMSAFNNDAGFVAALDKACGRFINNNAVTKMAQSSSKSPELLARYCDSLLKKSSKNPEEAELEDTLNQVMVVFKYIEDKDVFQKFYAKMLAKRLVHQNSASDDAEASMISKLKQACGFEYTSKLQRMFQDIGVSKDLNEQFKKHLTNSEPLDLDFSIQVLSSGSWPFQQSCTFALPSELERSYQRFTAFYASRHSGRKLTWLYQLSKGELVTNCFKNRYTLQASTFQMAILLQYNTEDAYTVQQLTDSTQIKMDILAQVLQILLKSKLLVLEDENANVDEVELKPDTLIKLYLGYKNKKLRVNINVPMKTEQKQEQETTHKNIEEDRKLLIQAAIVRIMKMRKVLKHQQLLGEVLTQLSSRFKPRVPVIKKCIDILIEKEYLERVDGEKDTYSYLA
T6 sequence (Q13309 whole entry): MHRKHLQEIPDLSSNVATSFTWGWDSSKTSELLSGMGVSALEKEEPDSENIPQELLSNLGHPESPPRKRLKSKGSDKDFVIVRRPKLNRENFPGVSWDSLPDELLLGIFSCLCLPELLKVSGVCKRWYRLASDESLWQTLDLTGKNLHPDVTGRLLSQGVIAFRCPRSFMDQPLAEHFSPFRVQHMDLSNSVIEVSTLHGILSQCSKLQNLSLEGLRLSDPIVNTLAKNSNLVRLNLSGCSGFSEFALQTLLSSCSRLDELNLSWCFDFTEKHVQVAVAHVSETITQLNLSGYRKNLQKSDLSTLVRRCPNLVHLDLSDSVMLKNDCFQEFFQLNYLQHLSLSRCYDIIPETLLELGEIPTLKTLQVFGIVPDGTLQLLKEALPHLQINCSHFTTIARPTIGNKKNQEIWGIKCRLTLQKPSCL
Chain of human Skp1 (endogenous, HeLa cells) (P63208 2-163 limits assumed): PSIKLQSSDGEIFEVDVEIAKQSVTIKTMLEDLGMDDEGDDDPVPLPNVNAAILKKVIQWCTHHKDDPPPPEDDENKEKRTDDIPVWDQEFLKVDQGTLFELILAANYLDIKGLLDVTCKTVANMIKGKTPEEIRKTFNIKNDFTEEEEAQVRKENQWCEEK
Chain of His-tagged Elongin C (Q15369 whole entry): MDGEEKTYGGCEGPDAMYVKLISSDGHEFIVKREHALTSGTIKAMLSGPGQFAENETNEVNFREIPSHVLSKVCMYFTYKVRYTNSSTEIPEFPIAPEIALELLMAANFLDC

With B1, the binding result in assay [1] and in assay [2] was “no binding” throughout.

As for B2, the binding result in assay [3] was “no binding”.

Turning to B3, the binding result in assay [4], in assay [5], in assay [6] and in assay [7] was “no binding” in each case.

For the molecule B4, the binding result in assay [8], in assay [9] and in assay [10] was “no binding” each time.

As for B5, the binding result in assay [3] is “no binding”.
